Where a chain is given by its changes, count along the chain named.
T1: recombinant cynomolgus monkey CD112R antigen (cynomolgus monkey, UniProt A0A2K5WVV8 1-322)
T1 construct: bought
T1 sequence: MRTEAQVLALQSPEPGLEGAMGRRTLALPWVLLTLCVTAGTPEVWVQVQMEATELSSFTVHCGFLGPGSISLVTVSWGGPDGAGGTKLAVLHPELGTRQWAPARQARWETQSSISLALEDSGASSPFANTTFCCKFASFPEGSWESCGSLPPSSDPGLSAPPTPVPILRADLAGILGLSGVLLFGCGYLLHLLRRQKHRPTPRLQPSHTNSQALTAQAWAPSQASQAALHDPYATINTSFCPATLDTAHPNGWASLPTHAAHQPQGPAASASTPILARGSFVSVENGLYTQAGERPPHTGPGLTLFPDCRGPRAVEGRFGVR

T2: human CD112R on Jurkat CD112R effector cells (human, UniProt Q6DKI7 1-326)
T2 sequence (looked up): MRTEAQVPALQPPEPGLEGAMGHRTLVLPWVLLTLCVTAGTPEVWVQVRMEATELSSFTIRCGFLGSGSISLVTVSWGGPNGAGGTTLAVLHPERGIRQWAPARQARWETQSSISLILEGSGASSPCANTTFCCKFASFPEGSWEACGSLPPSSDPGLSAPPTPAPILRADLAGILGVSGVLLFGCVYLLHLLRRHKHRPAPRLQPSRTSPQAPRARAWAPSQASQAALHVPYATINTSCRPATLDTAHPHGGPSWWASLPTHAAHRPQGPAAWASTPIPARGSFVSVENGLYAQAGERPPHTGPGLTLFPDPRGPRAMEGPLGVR

T3: human CD112R on CHO-CD112R cells (human, UniProt Q6DKI7 41-326)
T3 construct: whole, on cells; also called hCD112R; PVRIG
T3 sequence (looked up): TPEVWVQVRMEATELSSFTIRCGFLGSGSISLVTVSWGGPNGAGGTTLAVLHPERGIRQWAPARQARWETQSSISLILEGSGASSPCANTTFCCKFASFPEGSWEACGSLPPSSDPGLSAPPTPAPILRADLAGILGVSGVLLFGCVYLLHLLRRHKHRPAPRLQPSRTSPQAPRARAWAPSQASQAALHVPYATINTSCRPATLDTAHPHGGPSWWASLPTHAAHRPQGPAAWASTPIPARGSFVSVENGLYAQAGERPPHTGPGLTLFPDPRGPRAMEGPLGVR

T4: hCD112R mFC recombinant protein (human; murine, UniProt Q6DKI7 41-160)
T4 construct: range 41-160; expressed in 293E cells; also called hCD112R ECD mFC; hCD112R-ECD-mFC; not shown: murine IgG2a Fc domain (MX2-mFc vector)
T4 sequence (looked up): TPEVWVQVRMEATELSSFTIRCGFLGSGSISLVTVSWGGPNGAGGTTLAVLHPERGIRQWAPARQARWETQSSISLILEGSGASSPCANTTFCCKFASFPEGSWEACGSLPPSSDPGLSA

B1: Chi-46 (antibody, V domains shown)
VH: DVKLVESGGGLVKLGGSLKLSCAASGFTFSSYHMSWVRQTPEKRLELVAAINSNVISTYYLDTVKGRFTISRDNAKNTLYLQMSSLKSEDTALYYCARHEDYYGFAMDYWGQGTSVTVSS
VL: SIVMTQTPKFLLVSAGDRVTITCKASQSVSNDVAWYQQKPGQSPKLLMYYVSNRFTGVPDRFTGSGYGTDFTFTINTVQAEDLAVYFCQQAYRSPWTFGGGTKLEIK
notes: chimeric
B2: Chi-61 (antibody, V domains shown)
VH: DVKLVESGGGLVKLGGSLKLSCAASGFTFSSYHMSWVRQTPEKRLELVAAISRDGDSTYYPDTVKGRFTISRDDAENTLYLQMSSLKSEDTALYYCSRHEDYFGFAMDSWGQGTSVTVSS
VL: B1 VL with Q38E, N53H, Q89H
notes: chimeric
B3: Chi-70 (antibody, V domains shown)
VH: B1 VH with K3Q, A23V, V37I, V55D, S57N, N74I, Y80H
VL: B1 VL
notes: chimeric
B4: Chi-62 (antibody, V domains shown)
VH: B2 VH
VL: B1 VL
notes: chimeric
B5: Chi-53 (antibody, V domains shown)
VH: B1 VH with V37I, V55G, S57N
VL: B1 VL with Q38E, N53H, Q89H
notes: chimeric
B6: Chi-71 (antibody, V domains shown)
VH: B1 VH with K3Q, A23V, V37I, V55D, S57N, N74I, Y80H
VL: B1 VL with S30T, R54H, F55Y, T63I, N76S
notes: chimeric
B7: Chi-47 (antibody, V domains shown)
VH: B1 VH
VL: B1 VL with S30T, R54H, F55Y, T63I, N76S
notes: chimeric
B8: Chi-69 (antibody, V domains shown)
VH: B1 VH with K3Q, A23V, V37I, V55D, S57N, N74I, Y80H
VL: B1 VL with Q38E, N53H, Q89H
notes: chimeric
B9: Chi-55 (antibody, V domains shown)
VH: B1 VH with V37I, V55G, S57N
VL: B1 VL with S30T, R54H, F55Y, T63I, N76S
notes: chimeric

Assays:
[1] = target: T1, recombinant cynomolgus monkey CD112R …; assay: ELISA, coated cynomolgus monkey CD112R; EC50 Ref/EC50 antibody
Experimental: (§1) A plate was coated with a recombinant cynomolgus monkey CD112R antigen (Acrobiosystems, Cat No. PVG-C5259) at a fixed concentration, and the chimeric anti-CD112R antibodies diluted in a gradient (initial concentration: 1 μg/mL, 2.5-fold gradient dilution, 12 concentration gradients in total) were added to bind to the antigen. Horseradish peroxidase (HRP)-conjugated mouse anti-human IgG4 Fc (Southern Biotech, 9200-05) was subjected to a 5000-fold dilution and used as a detection antibody for detection. The color development was performed with 0.1 mg/mL TMB, and finally stopped with 2 M hydrochloric acid. The plate was read at 420 nm/620 nm. EC₅₀ was obtained by fitting with a four-parameter logistic regression (4PL) model.

[2] = target: T2, human CD112R on Jurkat CD112R effector …; assay: cell-based or functional assay
[3] = target: T1, recombinant cynomolgus monkey CD112R …; assay: ELISA, coated cynomolgus monkey CD112R
Experimental: as §1

[4] = target: T3, human CD112R on CHO-CD112R cells; assay: FACS on CHO-CD112R cells
Experimental: (§2) CHO-CD112R cells (constructed in-house by Junshi, the amino acid sequence of CD112R in the construction of stable cell lines overexpressing CD112R comprises amino acids at positions Met1-Arg326 under NCBI accession No. Q6DKI7) overexpressing human CD112R were incubated with each of the chimeric anti-CD112R antibodies at different concentrations (initial concentration: 50 μg/mL, 5-fold dilution, 12 concentration gradients in total) at 4° C. for 30 min, and then washed and incubated with a fluorescence-labeled secondary antibody at 4° C. for 30 min in the dark. Finally, the cells were collected by using a flow cytometer (BD Canto II), and the fluorescent antibodies bound to the cell surface were detected. Raw data were analyzed by using FlowJo to obtain MFI values, the antibody dose-dependent binding curves were fitted by using GraphPad (FIG. 3, a and b) and EC₅₀ was calculated (Table 3). The positive control and the negative control were Ref (anti-CD112R antibody, University of Colorado, obtained by expression and purification according to the sequences in US20170240613) and anti-KLH hu-IgG4 antibody, respectively.

[5] = target: T4, hCD112R mFC recombinant protein; assay: FACS blocking: hCD112R mFc (5 µg/mL) binding to human CD112 on CHO CD112 cells, MFI-APC; unit from the axis (µg/mL), Table 8 says ng/ml
Experimental: (§3) Cells CHO CD112 overexpressing human CD112 were co-incubated with a hCD112R mFc protein solution (5 μg/mL) prepared in a staining buffer (PBS+1% FBS), and the chimeric anti-CD112R antibodies or the control antibodies at different concentrations (initial concentration: 100 μg/mL, 3-fold dilution, 10 concentration gradients) at 4° C. for 30 min. Unbound antibodies were then washed with a staining buffer and the cells were incubated with 1% (v/v) goat anti-mouse IgG Fc fluorescent secondary antibodies (Jackson ImmunoResearch) prepared in a staining buffer at 4° C. for 30 min in the dark. Finally, the cells were collected by using a flow cytometer (BD Canto II), and the fluorescent antibodies bound to the cell surface were detected. Raw data were analyzed by using FlowJo to obtain MFI values, and a four-parameter curve fitting was performed by using GraphPad Prism software to obtain IC₅₀ values. The positive control and the negative control were Ref (anti-CD112R antibody, University of Colorado, obtained by expression and purification according to the sequences in US20170240613) and the anti-KLH hu-IgG4 antibody, respectively.

[6] = target: T4, hCD112R mFC recombinant protein; assay: FACS competition, hCD112R mFc on CHO CD112 cells
Experimental: as §3
As shown in FIG. 5 (a and b) and Table 8, the following 13 chimeric antibodies were all capable of effectively blocking the binding of the CD112R protein to CHO-CD112 cells.

[7] = target: T3, human CD112R on CHO-CD112R cells; assay: FACS on CHO-CD112R cells; EC50 Ref/EC50 antibody
Experimental: as §2

[8] = target: T4, hCD112R mFC recombinant protein; assay: FACS competition, hCD112R mFc on CHO CD112 cells; ratio Ref/antibody
Experimental: as §3

Binder	Relative activity (%) [1] [%]	EC50, CD112R/CD112 reporter [2] [µg/mL]	Relative activity (%), EC50 Ref/EC50 antibody [2] [%]	EC50 [3] [µg/mL]	EC50 [4] [µg/mL]	IC50 [5] [µg/mL]	IC50 [6] [µg/mL]	Relative activity (%) [7] [%]	Relative activity (%) [8] [%]
B1	107	0.00701	4610	0.00326	0.433	0.8	0.8	388	132
B2	83.8	0.019	1590	0.005	0.107	0.965	0.965	3990	110
B3	109	0.0139	1870	0.00383	0.26	0.708	0.708	1640	150
B4	113	0.0129	2350	0.00371	0.214	0.964	0.964	2000	110
B5	106	0.0129	2430	0.0033	0.627	0.979	0.979	268	108
B6	94.8	0.0194	1470	0.00442	0.205	0.733	0.733	2090	144
B7	113	0.014	2230	0.00309	0.28	0.876	0.876	600	121
B8	88.4	0.0187	1390	0.00474	0.262	0.959	0.959	1630	110
B9	100	0.0131	2310	0.00419	0.14	1.02	1.02	3050	104

— patent US20240309087A1 (SHANGHAI JUNSHI BIOSCIENCES, published 2024)
